Assay results from the nanobody polyreactivity screen of Harvey et al. (2022).

Experiment: yeast display, Sf9 membrane polyspecificity reagent, FACS + sequencing; frameworks hold sequencing errors
How it was run: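 Nanobodies from a synthetic yeast display library (Saccharomyces cerevisiae BJ5465), induced 36–48 hours with galactose, were stained 1 hour at 4 °C with 10% biotinylated, detergent-solubilized Sf9 membrane reagent, enriched on streptavidin microbeads, then FACS-sorted. Anti-HA (expression) and streptavidin (reagent binding) fluorescence set low and high (top ~1%) gates. Polyreactivity labels come from the gate of origin. Genes were colony-PCR amplified, MiSeq 2 × 250 sequenced and filtered by CDR length.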
With “QVQLVESGGGLVQAGGSLLLSCAASGNIIYSNALGWYRQGPGKERELVAAISSGGITYYADSVKGRFTISRDNAKNTVYLQMNSLKPEDTAVYYCAAYIRNWRATYEYWGQGTQVTVSS” the “polyreactivity (PSR sort gate)” value was “high polyreactivity”. With “QVQLVESGGGLVQAGGSLLLSCAASGRIFDRNAIGWYRQAPGKERELVAAINSVGTTYYADSVKGRFTISRDNAKNTVYLQMNSLKPEDTAVYYCAARSAYRRGYWGQGTQVTLSS” the “polyreactivity (PSR sort gate)” value was “high polyreactivity”. In the case of “QVQLVESGGGLVQAGGSLLLSCAASGRIFFTNAMGWYRQAPRKERELVAAISKSGARTYYADSVKGRFTISRDKAKNTVYLQMNSLKPEDTAVYYCATDYAFPQYDDWGQGTQVTVSS”, the “polyreactivity (PSR sort gate)” value is reported as “high polyreactivity”. With “QVQLVESGGGLVQAGGSLLLSCAASGRTFNYIAMGWYRQAPGKERELVAAISQGGGSTYYADSVKGRFTISRDNAKNTVYLQMNSLKPEVTAVSYFAADTWWYGKYDYWGQGTQVTVSS” the “polyreactivity (PSR sort gate)” value was “low polyreactivity”. For “QVQLVESGGGLVQAGGSLLLSCAASGSIFGGNAMGWSRQAPGKVRELVAAITSSGGSTYYADSVKGRFTISRDNAKNTVYLQMNSLKPEDTAVYYCNKLSWRKYLGYEYWGQGTQVTVSS”, the “polyreactivity (PSR sort gate)” value was “high polyreactivity”. For “QVQLVESGGGLVQAGGSLLLSCAASGSIFSAYAMGWDRQAPGKERQLVAGISKRGGSTYYADSVKGRFTISRDNAKNTVYLQMNSLKPEDTAVYYCNAARYPYARAVTYHYPSYGYWGQGTQVTVSS”, the “polyreactivity (PSR sort gate)” value was “high polyreactivity”. In the case of “QVQLVESGGGLVQAGGSLLLSCAASGSTFTQYAMGWYRQAPGKERELVAAINSRGDSTYYADSVKGRFTISRDNAKNTVYLQMNSLKPEDTAVYYCAKDPFPWALFDYWGQGTQVTVSS”, the “polyreactivity (PSR sort gate)” value is reported as “low polyreactivity”. With “QVQLVESGGGLVQAGGSLLLSCAASGSTLFLYAMGWYRQAPGKERELVAGITYSGSTYADSVKGRFTISRDNAKNTVYFQMNSLKPEDTAVYYCAKDGYWNEEYSVGMDYWGQGTQVTVSS” the “polyreactivity (PSR sort gate)” value was “low polyreactivity”. With “QVQLVESGGGLVQAGGSLLLSCAASGYTFGFYAMGWYTQAPGKERELVAAISASGGSTYYADSVKGRFTISRDNAKNTVYLQMNSVKPEETAVYYCAAVYSVYYHTWVTTRDYYYWGQGTQVTVSS” the “polyreactivity (PSR sort gate)” value was “high polyreactivity”. With “QVQLVESGGGLVQAGGSLLLSCAASGYTLEYNAMGWNRQAPGKEREFVARIRWSGSSTYYADSVKGRCTISRDNAKNTVYLQMNSLKPEDTAVYYCNADDGYYVGLSSAIYDYWGQGTQVTVSS” the “polyreactivity (PSR sort gate)” value was “high polyreactivity”. In the case of “QVQLVESGGGLVQAGGSLLLSCAASRSISYAYAMGWYRQAHGKERELVAAISWSDGSTYYADSVKGRFTISRDNAKNTVYLQMNSLKPEDTAVYYCAADYGWHYGDWYDYWGQGTQVTVSS”, the “polyreactivity (PSR sort gate)” value is reported as “low polyreactivity”. With “QVQLVESGGGLVQAGGSLLLSCAAYGSISPYYTMGLYRQAPGKERELVAAICSGGRTYYADSVKGRFTISRDNAKNTVYLHMNSLNPEDTSVYYCAVEVAWYVHWGDMDYWGQGTQVTVSS” the “polyreactivity (PSR sort gate)” value was “low polyreactivity”. In the case of “QVQLVESGGGLVQAGGSLLLSCGASGFIFYAYAMGWYRQAPVKDRELVAVMSSSGGSTYYADSVTGRFSISRAHAKTTVYLEWNSLKPDDTGGYYCAAETGTGETRYYRYWDYYYWGQGTQVTVSS”, the “polyreactivity (PSR sort gate)” value is reported as “high polyreactivity”. With “QVQLVESGGGLVQAGGSLLLTCAASGRIISLYAMGWYRQAPGKERELVAGISGGTIKYYADSLKGRFTISRDNAKNTVYLQMNSLKAEDTAVYYCAAKPTYRGYGYGSWGHGTQVTVSS” the “polyreactivity (PSR sort gate)” value was “low polyreactivity”. With “QVQLVESGGGLVQAGGSLPLSCAASGLTLYGNAMGWYRQAPAKEREMVADISLSGGRTFYADSVKGRFTITRDNAKNTVYLQMNSLKPEDTAVYYCAAVCRTGWYYEYYHWGQGSQVTVSS” the “polyreactivity (PSR sort gate)” value was “low polyreactivity”. In the case of “QVQLVESGGGLVQAGGSLPLSCAASGRTYVSYVMGRYRQAPGKEREFVAAISRSGGNTYYADSVKGRFTISRDTAKNTVYLQMNSLNPEDTAVYYCYVLLQRVYGTAPSFDYWGQGTQVTVSS”, the “polyreactivity (PSR sort gate)” value is reported as “high polyreactivity”. With “QVQLVESGGGLVQAGGSLPLSCAASGSIFGINAMGWYRQAPGKERELVAAISSRGASTYYADSVKGRFTISRDNAKNTVYLQMNSLKPEDTAVYYCAADAFYWGQGTQVTVSS” the “polyreactivity (PSR sort gate)” value was “low polyreactivity”. In the case of “QVQLVESGGGLVQAGGSLPLSCAASGSIFKTYAMGWYREAPGKERELVAAIRDSGDRTYYADSVKGRFTISRDNAKNTVYLQMNSLKPEDTAVYYCNARWQEALKYDYWGQGTQVTVSS”, the “polyreactivity (PSR sort gate)” value is reported as “low polyreactivity”. For “QVQLVESGGGLVQAGGSLPLSCAASGSIFMTYAIGWYRQAPGKERELVAAIRDSGDRTYYADSVKGRFTISRDNAKNTVYLQINSLKPEDTAVYYCNARWQEALKYDYWGQGTQVTVSS”, the “polyreactivity (PSR sort gate)” value was “low polyreactivity”. With “QVQLVESGGGLVQAGGSLPLSCAASGSNLRRYDMGLYRQAPGKERELVAAISSSGGSTYYADSVKGRFTISRDNAKNTVYLQMNSLKPEDTAVYYCAADIYDDDRSEYTEYDYWGQGTHVTVSS” the “polyreactivity (PSR sort gate)” value was “low polyreactivity”. For “QVQLVESGGGLVQAGGSLPLSCAASGSTFDRNVMGWYRQAPGKERELVAAISRVSSTNYADSVKGRFTISRDNAKNTVNLQMNSLKPEDTAVYSCAADGAGSIMNYWGQGTQVTVSS”, the “polyreactivity (PSR sort gate)” value was “low polyreactivity”. For “QVQLVESGGGLVQAGGSLPLSCAASGSTFLQYAMGWYRQAPGKERELVAAIRGRGDSTYYADSVNGRFTISRDNEMNTVYLQMNSLKPVDSAVYSCAARGQGSRGMYYWGQGTKVTVSS”, the “polyreactivity (PSR sort gate)” value was “low polyreactivity”. With “QVQLVESGGGLVQAGGSLPLSSAASGRTFYPNAMGWYRQAPGNEREFVARISDSGGSTYYADSVKGRFTISRDNAKNTVYLQMNSLKPEDTAVYYCAADYGDPRVKEYDYWGQGTQVTVSS” the “polyreactivity (PSR sort gate)” value was “low polyreactivity”. With “QVQLVESGGGLVQAGGSLRESCAASGRIFYGNAMGCYRQAPVKERELVAAISSGTSTNYADSVKGRFTISRDNAKNTVYLEMNSLKPEDTGVYYCAAGSYSRYLYSLYFDFDYWGQGTQVTVSS” the “polyreactivity (PSR sort gate)” value was “low polyreactivity”. In the case of “QVQLVESGGGLVQAGGSLRFICAASGRIFRRYLMGWYRQAPGKERELVARFRIRDSNTYYADSVKGRFTISRDNAKNTVYLQMNSLKPEDTAVYNCAVVANYVYSKYDYWGQGTQVTVSS”, the “polyreactivity (PSR sort gate)” value is reported as “high polyreactivity”. With “QVQLVESGGGLVQAGGSLRFRCAASGRIFSYVMGWYRQAPGKERELVAAISTGGGNTYYADSVKGRFTISRDNAKNTVYLQMNSLKPEDTAVYYCAADYYAGTFDYWGQGTQVTVSS” the “polyreactivity (PSR sort gate)” value was “high polyreactivity”. For “QVQLVESGGGLVQAGGSLRFSCAASGFIFGDYAMGWDRQAPGTEREFVATISRSVGSRSYADSVKGRFTISRDNAKKPVYLQMNSLKPEDTAVYYCAAVTWGEGFDYWGQGTQVTVSA”, the “polyreactivity (PSR sort gate)” value was “low polyreactivity”. In the case of “QVQLVESGGGLVQAGGSLRFSCAASGFIFRYYAMGWYRQAPGKERELVAAIDYSGGSTIYADSVKGRFTISRDNAKNTVYLQMNSLKPEDTAVYYCNAEYTWHRGYDYWGQGTQVTVSS”, the “polyreactivity (PSR sort gate)” value is reported as “low polyreactivity”. In the case of “QVQLVESGGGLVQAGGSLRFSCAASGFIFVRYAMGWYRQAPGKERELVAAISGSGGRTYYADSVKGRFTISRDNAKNTVYLQMTSLKPEDTAVYYCNGTSYTYGYLPYDYWGQGTQVTVSS”, the “polyreactivity (PSR sort gate)” value is reported as “high polyreactivity”. In the case of “QVQLVESGGGLVQAGGSLRFSCAASGGFFHGNTMGWYRQAPGKERELVAAISNSGGSTYYADSVKGRFPISRDNAKNTVYLQMNSLKPEDTAVDSCARVGYKLYQYKYDYWGQGTQVTVSS”, the “polyreactivity (PSR sort gate)” value is reported as “low polyreactivity”. In the case of “QVQLVESGGGLVQAGGSLRFSCAASGGNFGYYAMGWYRQAPGKERELVARISSSGGSTYYADSVKGRFTISRDNAKNTVYLQMNSLKPEDTAVYYCNTASNRYPGWRAEFDYWGQGTQVTVSS”, the “polyreactivity (PSR sort gate)” value is reported as “low polyreactivity”. With “QVQLVESGGGLVQAGGSLRFSCAASGGTFYVYAMGGYRQATGKERELVAAISTSGGSTYYADSVKGRFTISRDNAKNTVYLQMNSLKPEDTAVYYCAARRVSFSGHPRYGYWGQGTQVTVSS” the “polyreactivity (PSR sort gate)” value was “high polyreactivity”. In the case of “QVQLVESGGGLVQAGGSLRFSCAASGITFKGYAMGWYRQAPGKERELVAAINSRGGTYADSVKGRFTISRDNAKNTVYLQMNSLKPEDTAVYYCAVTAVRPLPLDSGYDYWGQGTQVTVSS”, the “polyreactivity (PSR sort gate)” value is reported as “low polyreactivity”. For “QVQLVESGGGLVQAGGSLRFSCAASGLIFRGYTMGWYRQAPGKEREFVAAITRRGTSTYYADSVKGRFTISRDNAKNTVYLQINRLKPEDTAVYYCAARSVSGPRGYPYDYWGQGTQVTVSS”, the “polyreactivity (PSR sort gate)” value was “high polyreactivity”. In the case of “QVQLVESGGGLVQAGGSLRFSCAASGPIFYNNAMGGYRQAPGKERELHAAISYSGGRTYYADSVKGRFTISRDNAKNTVYLQMNSLKPEDTAVYYCATRYARTAYIRSEYWGQGTQVTVSS”, the “polyreactivity (PSR sort gate)” value is reported as “high polyreactivity”. In the case of “QVQLVESGGGLVQAGGSLRFSCAASGRICVIYAIGWYRQAPGKERELVAVINDDGSTNYADSVKGRFTISRDNAKNTVYLQMNSLKPEDTAVYYCATDYVRHAGWRRYDYWGQGTQVTVSS”, the “polyreactivity (PSR sort gate)” value is reported as “low polyreactivity”. In the case of “QVQLVESGGGLVQAGGSLRFSCAASGRIFTAYTMGWYRQAPGKERELVAAITRAGRTYYADSVKGRFTISRDNAKNTVYLQMNSLKPEDTAVYYCNTAPNYKYGYWGQGTQVTVSS”, the “polyreactivity (PSR sort gate)” value is reported as “high polyreactivity”. In the case of “QVQLVESGGGLVQAGGSLRFSCAASGRILFSYGAMGLYRQAPGRERELDAATSYSGGSTYYADSVKGRFTISRDKAKKTVYLQMNSLKPEETAVYYCDPSSIVYRHYYWGQGTQVTLSS”, the “polyreactivity (PSR sort gate)” value is reported as “high polyreactivity”. With “QVQLVESGGGLVQAGGSLRFSCAASGRTFTVYAMGWYRQAPGKERELVAAINYSVGSTYYADSVKGRFTISRDNAKNTVYLQMNSLKPEDTAVYYCAADLYHFSYSYSYIRYDYWGQGTQVTVSS” the “polyreactivity (PSR sort gate)” value was “low polyreactivity”. In the case of “QVQLVESGGGLVQAGGSLRFSCAASGRTFVWYTMGWYRQAPGKERELVAAISSGGSTSYADSVKGRFTISRDNAKNTVYLQMNSLKPEDTAVYYCNAVWYVRYSGMDYWGQGTQVTVSS”, the “polyreactivity (PSR sort gate)” value is reported as “high polyreactivity”. In the case of “QVQLVESGGGLVQAGGSLRFSCAASGRTFYFYAMGWYRQAPGKERELVAAIRSSGGSTNYADSVKGRFTISRDNAKNTVYLQMNSLKPEDTAVYYCAAKRRAKGNYAFYYWGQGTQVTVSS”, the “polyreactivity (PSR sort gate)” value is reported as “high polyreactivity”.
